# B1: Protein PTHB1 (Homo sapiens), Q3SYG4 (parent)
# chain: MSLFKARDWWSTILGDKEEFDQGCLCLANVDNSGNGQDKIIVGSFMGYLRIFSPHPAKTGDGAQAEDLLLEVDLRDPVLQVEVGKFVSGTEMLHLAVLHSRKLCVYSVSGTLGNVEHGNQCQMKLMYEHNLQRTACNMTYGSFGGVKGRDLICIQSMDGMLMVFEQESYAFGRFLPGFLLPGPLAYSSRTDSFLTVSSCQQVESYKYQVLAFATDADKRQETEQQKLGSGKRLVVDWTLNIGEQALDICIVSFNQSASSVFVLGERNFFCLKDNGQIRFMKKLDWSPSCFLPYCSVSEGTINTLIGNHNNMLHIYQDVTLKWATQLPHIPVAVRVGCLHDLKGVIVTLSDDGHLQCSYLGTDPSLFQAPNVQSRELNYDELDVEMKELQKIIKDVNKSQGVWPMTEREDDLNVSVVVSPNFDSVSQATDVEVGTDLVPSVTVKVTLQNRVILQKAKLSVYVQPPLELTCDQFTFEFMTPDLTRTVSFSVYLKRSYTPSELEGNAVVSYSRPTDRNPDGIPRVIQCKFRLPLKLICLPGQPSKTASHKITIDTNKSPVSLLSLFPGFASQSDDDQVNVMGFHFLGGARITVLASKTSQRYRIQSEQFEDLWLITNELILRLQEYFEKQGVKDFACSFSGSIPLQEYFELIDHHFELRINGEKLEELLSERAVQFRAIQRRLLARFKDKTPAPLQHLDTLLDGTYKQVIALADAVEENQGNLFQSFTRLKSATHLVILLIALWQKLSADQVAILEAAFLPLQEDTQELGWEETVDAAISHLLKTCLSKSSKEQALNLNSQLNIPKDTSQLKKHITLLCDRLSKGGRLCLSTDAAAPQTMVMPGGCTTIPESDLEERSVEQDSTELFTNHRHLTAETPRPEVSPLQGVSE
# partner: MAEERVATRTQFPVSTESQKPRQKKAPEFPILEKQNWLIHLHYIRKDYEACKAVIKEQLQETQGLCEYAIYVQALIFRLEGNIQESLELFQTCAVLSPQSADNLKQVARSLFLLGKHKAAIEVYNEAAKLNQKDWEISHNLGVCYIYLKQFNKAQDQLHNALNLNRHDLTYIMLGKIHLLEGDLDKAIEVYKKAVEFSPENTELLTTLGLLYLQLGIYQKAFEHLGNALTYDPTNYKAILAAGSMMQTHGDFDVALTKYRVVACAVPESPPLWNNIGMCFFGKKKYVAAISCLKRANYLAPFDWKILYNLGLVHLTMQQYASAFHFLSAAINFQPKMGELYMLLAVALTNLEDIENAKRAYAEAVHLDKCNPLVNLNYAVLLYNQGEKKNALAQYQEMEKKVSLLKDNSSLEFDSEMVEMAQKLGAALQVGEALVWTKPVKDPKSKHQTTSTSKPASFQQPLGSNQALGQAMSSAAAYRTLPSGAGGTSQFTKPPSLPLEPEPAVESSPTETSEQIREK
# B2: BBSome complex member BBS2 (Homo sapiens), Q9BXC9 (parent)
# chain: MLLPVFTLKLRHKISPRMVAIGRYDGTHPCLAAATQTGKVFIHNPHTRNQHVSASRVFQSPLESDVSLLSINQAVSCLTAGVLNPELGYDALLVGTQTNLLAYDVYNNSDLFYREVADGANAIVLGTLGDISSPLAIIGGNCALQGFNHEGSDLFWTVTGDNVNSLALCDFDGDGKKELLVGSEDFDIRVFKEDEIVAEMTETEIVTSLCPMYGSRFGYALSNGTVGVYDKTSRYWRIKSKNHAMSIHAFDLNSDGVNELITGWSNGKVDARSDRTGEVIFKDNFSSAIAGVVEGDYRMDGHIQLICCSVDGEIRGYLPGTAEMRGNLMDTSAEQDLIRELSQKKQNLLLELRNYEENAKAELASPLNEADGHRGIIPANTRLHTTLSVSLGNETQTAHTELRISTSNDTIIRAVLIFAEGIFTGESHVVHPSIHNLSSSICIPIVPPKDVPVDLHLKAFVGYRSSTQFHVFESTRQLPRFSMYALTSLDPASEPISYVNFTIAERAQRVVVWLGQNFLLPEDTHIQNAPFQVCFTSLRNGGHLHIKIKLSGEITINTDDIDLAGDIIQSMASFFAIEDLQVEADFPVYFEELRKVLVKVDEYHSVHQKLSADMADHSNLIRSLLVGAEDARLMRDMKTMKSRYMELYDLNRDLLNGYKIRCNNHTELLGNLKAVNQAIQRAGRLRVGKPKNQVITACRDAIRSNNINTLFKIMRVGTASS
# partner: B1 chain
# Variants of: B1
# Conditions: with bbs4_human BBS4, Q96RK4
row,Variant,effect of a mutation on the interaction
1,L882E,with no effect
2,L882A,with no effect
3,L882K,with no effect
4,P877K,with no effect
5,P877A,with no effect
6,P877E,with no effect
7,G884K,with no effect
8,G884E,with no effect
9,G884A,with no effect
10,V885K,with no effect
11,V885E,with no effect
12,V885A,with no effect
13,N866E,with no effect
14,N866A,with no effect
15,N866K,with no effect
16,L863A,with no effect
17,L863E,with no effect
18,L863K,with no effect
19,P881A,with no effect
20,P881E,with no effect
21,P881K,with no effect

row,Variant,effect of a mutation on the interaction
1,P875A,with no effect
2,P875K,with no effect
3,P875E,with no effect
4,L870K,with no effect
5,L870A,with no effect
6,L870E,with no effect
7,E887A,with no effect
8,E887K,with no effect
9,T861A,with no effect
10,T861E,with no effect
11,T861K,with no effect
12,E873A,with no effect
13,E873K,with no effect
14,Q883K,with no effect
15,Q883A,with no effect
16,Q883E,with no effect
17,T874E,with no effect
18,T874K,with no effect
19,T874A,with no effect
20,F864E,with no effect
21,F864K,with no effect

row,Variant,effect of a mutation on the interaction
1,F864A,with no effect
2,R868E,with no effect
3,R868A,with no effect
4,R868K,with no effect
5,H869A,with no effect
6,H869E,with no effect
7,H869K,with no effect
8,A872E,with no effect
9,A872K,with no effect
10,T871A,with no effect
11,T871K,with no effect
12,T871E,with no effect
13,S860K,with no effect
14,S860E,with no effect
15,S860A,with no effect
16,V879K,with no effect
17,V879E,with no effect
18,V879A,with no effect
19,S886A,with no effect
20,S886K,with no effect
21,S886E,with no effect

row,Variant,effect of a mutation on the interaction
1,E878A,with no effect
2,E878K,with no effect
3,S880K,with no effect
4,S880E,with no effect
5,S880A,with no effect
6,T865A,with no effect
7,T865K,with no effect
8,T865E,with no effect
9,D859K,with no effect
10,D859A,with no effect
11,D859E,with no effect
12,R876A,with no effect
13,R876E,with no effect
14,R876K,with no effect
15,H867E,with no effect
16,H867K,with no effect
17,H867A,with no effect
18,E862K,with no effect
19,E862A,with no effect

# Variants of: B2
# Conditions: with pthb1_human BBS9, Q3SYG4
row,Variant,effect of a mutation on the interaction
1,S365R,disrupting interaction strength
2,L455E,disrupting interaction strength
3,G688K,disrupting interaction strength
4,W513E,disrupting interaction strength
5,I568E,disrupting interaction strength

# Variants of: B2
# Conditions: with pthb1_human BBS9, Q3SYG4
# Remark: another data set of the same source
row,Variant,effect of a mutation on the interaction
1,I412E,with no effect
2,A631E,with no effect
3,G688K,with no effect
4,P479A,with no effect

# Variants of: B2
# Conditions: with pthb1_human BBS9, Q3SYG4
# Remark: another data set of the same source
row,Variant,effect of a mutation on the interaction
1,L455E,with no effect
2,W513E,with no effect

# From IntAct's records for PubMed 29039417
